The labels stand for the following.
B1: TN24 (ssRNA)
RNA: GGGAGGACGAUGCGGGACCAACUAAACUGUUCGAAAGCUGGAACAUGUCCUGACGCCAGACGACUCGCCCGA
modifications: 2'-F C and U
B2: TN27 (ssRNA)
RNA: GGGAGGACGAUGCGGAAACCAACCGUUGACCACCUUUUCGUUUCCGGAAAGUCCCCAGACGACUCGCCCGA
modifications: 2'-F C and U
B3: TN18 (ssRNA)
RNA: GGGAGGACGAUGCGGUCGACCUCGAAUGACUCUCCACCUAUCUAACAUCCCCCCCCAGACGACUCGCCCGA
modifications: 2'-F C and U
B4: TN22 (ssRNA)
RNA: GGGAGGACGAUGCGGCAACCUCGAUAGACUUUUCCCGCAUCACUGUGUACUCCCCCAGACGACUCGCCCGA
modifications: 2'-F C and U
B5: TN9.4 (ssRNA)
RNA: GGGAGGACGAUGCGGAACAAUGCACUCGUCGCCGUAAUGGAUGUUUUGCUCCCUG
modifications: 2'-F C and U; 3'-3' cap
B6: TN11 (ssRNA)
RNA: GGGAGGACGAUGCGGCAAUCAAAACUCACGUUAUUCCCUCAUCUAUUAGCUUCCCCAGACGACUCGCCCGA
modifications: 2'-F C and U
B7: TN32 (ssRNA)
RNA: GGGAGGACGAUGCGGCAACCUCAAUCUUGACAUUUCCCGCACCUAAAUUUGCCCCCAGACGACUCGCCCGA
modifications: 2'-F C and U
B8: TN45 (ssRNA)
RNA: GGGAGGACGAUGCGGCAAUCUCCGAAAAAGACUCUUCCUGCAUCCUCUCACCCCCCAGACGACUCGCCCGA
modifications: 2'-F C and U
B9: TN29 (ssRNA)
RNA: GGGAGGACGAUGCGGCCAACCUCAUUUUGACACUUCGCCGCACCUAAUUGCCCCCAGACGACUCGCCCGA
modifications: 2'-F C and U
B10: TN4 (ssRNA)
RNA: GGGAGGACGAUGCGGCAACCUCGAAAGACUUUUCCCGCAUCACUGUGUACUCCCCCAGACGACUCGCCCGA
modifications: 2'-F C and U
B11: TN14 (ssRNA)
RNA: GGGAGGACGAUGCGGCAAACGAUCACUUACCUUUCCUGCAUCUGCUAGCCUCCCCCAGACGACUCGCCCGA
modifications: 2'-F C and U
B12: TN44 (ssRNA)
RNA: GGGAGGACGAUGCGGACGCCAGCCAUUGACCCUCGCUUCCACUAUUCCAUCCCCCCAGACGACUCGCCCGA
modifications: 2'-F C and U
B13: TN9 with CACU loop (ssRNA)
RNA: GGGAGGACGCACUCGUCGCCGUAAUGGAUGUUUUGCUCCCUG
modifications: 2'-F C and U [2'-F: 8,10,12-14,16,17,19,20,22,25,29,31-34,36-41]
B14: TN9 with GAGA loop (ssRNA)
RNA: GGGAGGACGGAGACGUCGCCGUAAUGGAUGUUUUGCUCCCUG
modifications: 2'-F C and U [2'-F: 8,14,16,17,19,20,22,25,29,31-34,36-41]
B15: TN7 (ssRNA)
RNA: GGGAGGACGAUGCGGAACACUUUCCCAUGCGUCGCCAUACCGGAUAUAUUGCUCCCAGACGACUCGCCCGA
modifications: 2'-F C and U
B16: TN21 (ssRNA)
RNA: GGGAGGACGAUGCGGACUGGACCAAACCGUCGCCGAUACCCGGAUACUUUGCUCCCAGACGACUCGCCCGA
modifications: 2'-F C and U
B17: TN9 (ssRNA)
RNA: GGGAGGACGAUGCGGAACAAUGCACUCGUCGCCGUAAUGGAUGUUUUGCUCCCUGCAGACGACUCGCCCGA
modifications: 2'-F C and U
B18: TN41 (ssRNA)
RNA: GGGAGGACGAUGCGGUUAAGUCUCGGUUGAAUGCCCAUCCCAGAUCCCCCUGACCCAGACGACUCGCCCGA
modifications: 2'-F C and U
B19: E9P2-2 (ssRNA)
RNA: GGGAGGACGAUGCGGUGCCCACUAUGCGUGCCGAAAAACAUUUCCCCCUCUACCCCAGACGACUCGCCCGA
modifications: 2'-F C and U
B20: E9P2-1 (ssRNA)
RNA: GGGAGGACGAUGCGGUGCCCAUAGAAGCGUGCCGCUAAUGCUAACGCCCUCCCCCAGACGACUCGCCCGA
modifications: 2'-F C and U
B21: TN9.4M2 (ssRNA)
RNA: GGGAGGACGAUGCGGAACAAUGCACUCGUCGCCGUAAUGGAUGUUUUGCUCCCUG
modifications: 2'-F C and U; 2'-OMe G6,A7,G9,A10,G12,G14; 3'-3' cap
B22: TN9.4M135G6 (ssRNA)
RNA: GGGAGGACGAUGCGGAACAAUGCACUCGUCGCCGUAAUGGAUGUUUUGCUCCCUG
modifications: 2'-F C and U; 2'-OMe purines of sectors 1,3,5 plus G6; 5' hexyl amine; 3'-3' cap
B23: TN9.4M135G12G14 (ssRNA)
RNA: GGGAGGACGAUGCGGAACAAUGCACUCGUCGCCGUAAUGGAUGUUUUGCUCCCUG
modifications: 2'-F C and U; 2'-OMe purines of sectors 1,3,5 plus G12,G14; 5' hexyl amine; 3'-3' cap
B24: TN9.4M135G28 (ssRNA)
RNA: GGGAGGACGAUGCGGAACAAUGCACUCGUCGCCGUAAUGGAUGUUUUGCUCCCUG
modifications: 2'-F C and U; 2'-OMe purines of sectors 1,3,5 plus G28; 5' hexyl amine; 3'-3' cap
B25: TN9.4M1235 (ssRNA)
RNA: GGGAGGACGAUGCGGAACAAUGCACUCGUCGCCGUAAUGGAUGUUUUGCUCCCUG
modifications: 2'-F C and U; 2'-OMe purines of sectors 1,2,3,5 (G28,G31,G34 2'-OH); 5' hexyl amine; 3'-3' cap
B26: TN9.4M135G31 (ssRNA)
RNA: GGGAGGACGAUGCGGAACAAUGCACUCGUCGCCGUAAUGGAUGUUUUGCUCCCUG
modifications: 2'-F C and U; 2'-OMe purines of sectors 1,3,5 plus G31; 5' hexyl amine; 3'-3' cap
B27: TN9.4Me (ssRNA)
RNA: GGGAGGACGAUGCGGAACAAUGCACUCGUCGCCGUAAUGGAUGUUUUGCUCCCUG
modifications: 2'-F C and U; 2'-OMe all purines; 3'-3' cap
B28: TN9.4M5 (ssRNA)
RNA: GGGAGGACGAUGCGGAACAAUGCACUCGUCGCCGUAAUGGAUGUUUUGCUCCCUG
modifications: 2'-F C and U; 2'-OMe A36,A37,G39,G40,A41,G43,G48; 3'-3' cap
B29: TN9.4M135G9 (ssRNA)
RNA: GGGAGGACGAUGCGGAACAAUGCACUCGUCGCCGUAAUGGAUGUUUUGCUCCCUG
modifications: 2'-F C and U; 2'-OMe purines of sectors 1,3,5 plus G9; 5' hexyl amine; 3'-3' cap
B30: TN9.4M135A7 (ssRNA)
RNA: GGGAGGACGAUGCGGAACAAUGCACUCGUCGCCGUAAUGGAUGUUUUGCUCCCUG
modifications: 2'-F C and U; 2'-OMe purines of sectors 1,3,5 plus A7; 5' hexyl amine; 3'-3' cap
B31: TN9.4M135A10 (ssRNA)
RNA: GGGAGGACGAUGCGGAACAAUGCACUCGUCGCCGUAAUGGAUGUUUUGCUCCCUG
modifications: 2'-F C and U; 2'-OMe purines of sectors 1,3,5 plus A10; 5' hexyl amine; 3'-3' cap
B32: TN9.4M3 (ssRNA)
RNA: GGGAGGACGAUGCGGAACAAUGCACUCGUCGCCGUAAUGGAUGUUUUGCUCCCUG
modifications: 2'-F C and U; 2'-OMe G15,A16,A17,A19,A20,G22,A24; 3'-3' cap
B33: TN9.4M135G34 (ssRNA)
RNA: GGGAGGACGAUGCGGAACAAUGCACUCGUCGCCGUAAUGGAUGUUUUGCUCCCUG
modifications: 2'-F C and U; 2'-OMe purines of sectors 1,3,5 plus G34; 5' hexyl amine; 3'-3' cap
B34: TN9.4M1 (ssRNA)
RNA: GGGAGGACGAUGCGGAACAAUGCACUCGUCGCCGUAAUGGAUGUUUUGCUCCCUG
modifications: 2'-F C and U; 2'-OMe G1,G2,G3,A4,G5,G55; 3'-3' cap

T1 sequence (P24821 23-2201, one chain of several): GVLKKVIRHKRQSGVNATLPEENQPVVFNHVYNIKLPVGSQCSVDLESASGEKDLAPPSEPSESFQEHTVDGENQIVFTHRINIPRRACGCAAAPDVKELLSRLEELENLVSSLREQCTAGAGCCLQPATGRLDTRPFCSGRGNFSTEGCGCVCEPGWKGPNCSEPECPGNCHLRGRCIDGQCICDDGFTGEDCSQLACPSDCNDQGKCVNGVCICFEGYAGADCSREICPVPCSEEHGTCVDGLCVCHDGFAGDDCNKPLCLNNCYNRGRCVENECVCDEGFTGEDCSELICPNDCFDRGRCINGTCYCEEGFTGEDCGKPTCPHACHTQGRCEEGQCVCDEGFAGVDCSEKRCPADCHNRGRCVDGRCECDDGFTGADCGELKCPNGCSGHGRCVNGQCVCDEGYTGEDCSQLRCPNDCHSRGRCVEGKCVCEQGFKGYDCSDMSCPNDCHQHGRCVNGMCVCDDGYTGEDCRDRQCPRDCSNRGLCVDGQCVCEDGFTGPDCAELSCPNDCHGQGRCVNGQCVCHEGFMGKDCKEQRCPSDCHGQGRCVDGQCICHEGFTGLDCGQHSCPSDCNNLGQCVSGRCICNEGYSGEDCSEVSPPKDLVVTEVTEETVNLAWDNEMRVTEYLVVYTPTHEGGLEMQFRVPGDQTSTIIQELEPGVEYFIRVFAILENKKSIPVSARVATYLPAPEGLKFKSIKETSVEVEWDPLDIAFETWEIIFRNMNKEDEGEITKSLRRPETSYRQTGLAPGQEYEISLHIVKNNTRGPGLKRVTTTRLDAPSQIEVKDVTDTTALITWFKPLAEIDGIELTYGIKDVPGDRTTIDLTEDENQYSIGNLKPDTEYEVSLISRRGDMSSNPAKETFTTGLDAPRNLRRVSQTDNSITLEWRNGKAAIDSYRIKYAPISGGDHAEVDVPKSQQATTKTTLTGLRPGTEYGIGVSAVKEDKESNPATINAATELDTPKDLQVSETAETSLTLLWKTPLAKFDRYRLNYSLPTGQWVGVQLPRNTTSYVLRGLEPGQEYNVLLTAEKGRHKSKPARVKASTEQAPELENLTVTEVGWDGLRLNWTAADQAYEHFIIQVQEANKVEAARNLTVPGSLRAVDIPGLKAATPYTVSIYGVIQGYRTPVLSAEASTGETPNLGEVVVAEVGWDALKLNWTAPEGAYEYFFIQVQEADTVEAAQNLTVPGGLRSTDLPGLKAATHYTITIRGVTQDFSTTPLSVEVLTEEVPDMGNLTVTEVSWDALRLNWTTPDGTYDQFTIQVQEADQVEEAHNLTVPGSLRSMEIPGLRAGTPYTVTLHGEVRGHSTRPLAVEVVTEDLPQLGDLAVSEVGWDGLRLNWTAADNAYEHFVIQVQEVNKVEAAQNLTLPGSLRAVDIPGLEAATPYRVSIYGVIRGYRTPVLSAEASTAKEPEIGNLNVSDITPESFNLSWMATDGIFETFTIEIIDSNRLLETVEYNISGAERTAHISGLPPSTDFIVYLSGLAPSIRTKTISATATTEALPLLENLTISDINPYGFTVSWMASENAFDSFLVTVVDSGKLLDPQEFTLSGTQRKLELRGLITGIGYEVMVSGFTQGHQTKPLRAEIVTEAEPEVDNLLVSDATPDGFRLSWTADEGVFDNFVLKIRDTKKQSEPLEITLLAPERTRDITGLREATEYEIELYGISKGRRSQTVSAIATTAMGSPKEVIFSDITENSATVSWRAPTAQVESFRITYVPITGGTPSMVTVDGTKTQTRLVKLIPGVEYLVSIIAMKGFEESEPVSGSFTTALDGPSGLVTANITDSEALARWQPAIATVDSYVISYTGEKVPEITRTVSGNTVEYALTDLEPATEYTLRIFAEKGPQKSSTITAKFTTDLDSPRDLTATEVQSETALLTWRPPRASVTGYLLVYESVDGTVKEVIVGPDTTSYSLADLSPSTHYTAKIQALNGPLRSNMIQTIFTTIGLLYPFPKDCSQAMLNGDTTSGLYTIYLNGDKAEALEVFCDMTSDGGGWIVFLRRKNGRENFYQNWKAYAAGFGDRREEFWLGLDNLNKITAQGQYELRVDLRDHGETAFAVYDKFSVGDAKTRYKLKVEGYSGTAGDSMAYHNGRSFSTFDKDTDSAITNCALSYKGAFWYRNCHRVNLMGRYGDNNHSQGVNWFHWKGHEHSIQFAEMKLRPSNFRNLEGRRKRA

The target in the first series is T1, Tenascin-C (Homo sapiens, UniProt P24821 P24821:23-2201). As to the kind of experiment: filter; orphan. The note with it: tags: Chemicon (Temecula, CA). Here is the method:
(§1) which contains the T7 polymerase promoter (underlined). RNA was prepared with T7 RNA polymerase as described previously in Fitzwater, T., and Polisky, B. 1996. A SELEX primer. Methods Enzymol. 267, 275-301, incorporated herein by reference in its entirety. All transcription reactions were performed in the presence of pyrimidine nucleotides that were 2′-fluoro (2′-F) modified on the sugar moiety. This substitution confers enhanced resistance to ribonucleases that utilize the 2′-hydroxyl moiety for cleavage of the phosphodiester bond. Specifically, each transcription mixture contained 3.3 mM 2′-F UTP and 3.3 mM 2′-F CTP along with 1 mM GTP and ATP. The initial randomized RNA library thus produced comprised 3×10¹⁴ molecules. The affinities of individual ligands for tenascin-C were determined by standard methods using nitrocellulose filter partitioning (Tuerk C, Gold L. Science Aug. 3, 1990 3;249(4968):505-10).
With B1, the dissociation constant Kd – broadly, the free concentration of one partner at which half of the binding sites on the other are occupied at equilibrium, for simple one-to-one binding – is 10 nM.
Take B2: the Kd was 110 nM.
B3: the equilibrium dissociation constant (Kd) worked out at 145 nM.

For the next series, the target named is T1, Tenascin-C. Put plainly: filter; Family I; printed as 7N22. Conditions: tags: Chemicon (Temecula, CA).
For the molecule B4, the Kd is 40 nM.

A further series concerns the target T1, Tenascin-C. As to the kind of experiment: filter; unit printed as nN. Conditions: tags: Chemicon (Temecula, CA). The text has this: (§2) Oligonucleotide synthesis procedures were standard for those skilled in the art (Green L S, Jellinek D, Bell C, Beebe L A, Feistner B D, Gill S C, Jucker F M, Janjic N. Chem Biol 1995 Oct.;2(10):683-95). 2′-fluoro pyrimidine phosphoramidite monomers were obtained from JBL Scientific (San Luis Obispo, Calif.); 2′-OMe purine, 2′-OH purine, hexyl amine, and (CH₂CH₂O)₆ monomers, along with the dT polystyrene solid support, were obtained from Glen Research (Sterling, Va.). Aptamer affinities were determined using nitrocellulose filter partitioning (Green et al., supra).
Consider B5, for which the equilibrium dissociation constant (Kd) is 2 nM.

A further series deals with T1, Tenascin-C. Put plainly: filter; Family I. Conditions: tags: Chemicon (Temecula, CA). Here is the method: as §1
In the case of B6, the affinity, expressed as Kd, was 10 nM.
In the case of B7, the dissociation constant (Kd) is 15 nM.
Same read-out and setting: for B8 the value was 30 nM; for B9, 25 nM.
B10: binding was characterised by a dissociation constant (Kd) of 40 nM.
Still for that read-out and setting: for B11 the value was 20 nM; for B12, 10 nM.

The next series has as its target T1, Tenascin-C. As to the kind of experiment: filter. Conditions: tags: Chemicon (Temecula, CA).
With B13, the binding result was “binds”.
B14: the binding result was “binds”.

The next series deals with T1, Tenascin-C. Put plainly: filter; Family II. Conditions: tags: Chemicon (Temecula, CA).
Regarding B15, binding was characterised by a dissociation constant (Kd) of 20 nM.
Same read-out and setting: to B16 belongs 10 nM.
For the molecule B17, binding was characterised by a dissociation constant (Kd) of 5 nM.
The molecule B18 returned a dissociation constant (Kd) of 20 nM.
The same measure, in the same setting: for B19 the value was 8 nM; for B20, 2 nM.

The target in the next series is T1, Tenascin-C. As to the kind of experiment: filter. Conditions: tags: Chemicon (Temecula, CA). This is another data set of the same source.
From the text: as §2
The molecule B21 gave a Kd of 20 nM.
In turn, B22 returned an equilibrium dissociation constant (Kd) of 2.2 nM.
As to B23, the Kd was 2.5 nM.
Same read-out and setting: for B24 the value was 37 nM; for B25, 16.5 nM.
Same read-out and setting: to B26 belongs 55 nM; to B27, 10 nM.
Regarding B28, the dissociation constant Kd was 4 nM.
Still for that read-out and setting: for B29 the value was 7.7 nM; for B30, 1.7 nM.
Molecule B31 gave a Kd of 1.3 nM.
Same read-out and setting: for B32 the value was 7 nM.
Still for that read-out and setting: to B33 belongs 7 nM; to B34, 6 nM.
